Values quoted from earlier work as cited in publication PMC9464413.

Biological target: p97 (Homo sapiens) (UniProt P55072)
Experiment: SPR

Sequence of UniProt P55072 (P55072 2-806): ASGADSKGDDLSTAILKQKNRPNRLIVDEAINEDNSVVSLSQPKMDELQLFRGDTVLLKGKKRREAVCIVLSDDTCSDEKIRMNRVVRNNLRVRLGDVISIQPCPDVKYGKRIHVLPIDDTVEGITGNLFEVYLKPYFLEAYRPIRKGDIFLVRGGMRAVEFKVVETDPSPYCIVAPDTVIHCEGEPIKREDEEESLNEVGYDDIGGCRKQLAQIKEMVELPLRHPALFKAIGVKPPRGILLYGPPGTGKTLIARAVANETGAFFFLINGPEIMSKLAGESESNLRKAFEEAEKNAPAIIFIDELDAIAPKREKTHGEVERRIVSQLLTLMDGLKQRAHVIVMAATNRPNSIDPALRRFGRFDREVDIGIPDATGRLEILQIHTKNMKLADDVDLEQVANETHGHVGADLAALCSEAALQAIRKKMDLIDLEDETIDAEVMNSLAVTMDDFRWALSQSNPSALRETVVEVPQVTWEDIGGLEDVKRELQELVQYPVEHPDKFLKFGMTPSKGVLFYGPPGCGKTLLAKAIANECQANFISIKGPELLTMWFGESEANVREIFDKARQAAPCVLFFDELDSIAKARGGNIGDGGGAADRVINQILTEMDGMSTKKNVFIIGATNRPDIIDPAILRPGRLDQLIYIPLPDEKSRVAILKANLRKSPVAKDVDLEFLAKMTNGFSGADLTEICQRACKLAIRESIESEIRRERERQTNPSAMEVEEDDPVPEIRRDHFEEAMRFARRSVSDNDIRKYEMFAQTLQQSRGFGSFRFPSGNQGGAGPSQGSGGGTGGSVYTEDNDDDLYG

Row | Substance | Kd
1 | p37 (from UniProt Q14CS0) | 29 nM
2 | p47 (from UniProt Q9UNZ2) | 20 nM
